Measurements: the RNAGym collection of RNA variant scans (doi:10.1073/pnas.2313332121)

B1: TPR t1 (parent)
chain: GACCAAUCUGCCCUCAGAGCUCGAGAACAUCUUCGGAUGCAGAGGAGGCAGGCUUCGGUGGCGCGAUAGCGCCAACGUCCUCAACCUCCAAUGCAUCCCACCACAUGAUGAUGCCUGAAGAGCCUUGGUUUUUUG

Variants of: B1
Test: polymerase ribozyme fitness, log enrichment relative to wild type (log ratio); higher = more active; in vitro selection for triplet polymerase activity
Outline: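 One round of in vitro selection, in triplicate, was applied to PCR-built, transcribed mutant libraries of each subunit of a heterodimeric triplet polymerase ribozyme. The steps were annealing with a biotinylated primer, partner subunit and triplets, incubation frozen at −7 °C, gel excision of extended constructs, streptavidin-bead capture and RT-PCR. Fitness is the logarithm, base 2, of genotype enrichment over wild-type enrichment from inverse-variance-weighted replicate averages of Illumina-sequenced inputs and outputs, keeping genotypes with ≥10 input reads and ≥1 read per output.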

| Variant | polymerase ribozyme fitness (log ratio) |
| --- | --- |
| A41C U59G C79U C124A | 0.881 |
| A41U C49U | -2.03 |
| A41U C49G | -2.03 |
| C40G U78A | -0.582 |
| A41C C89A G93U C101U G113U | -6.26 |
| A41C U78G | -1.18 |
| A41G G57C | -0.0815 |
| A41G G42A | -2.57 |
| A41U C62U | -1.86 |
| A41U C62A | -2.71 |
| A41U A46U G61A | -1.65 |
| A41C G69C C114A | -3.84 |
| A41U C70U | -2.3 |
| A41U C70G | -5.5 |
| A41G C56U C72A G113A G128U | -5.53 |
| C40U G61C U126G | -4.04 |
| C40G G71U G117A | -2.71 |
| A41C A90G | -0.105 |
| A41C C114A | -2.37 |
| C40U A74G C88U G120A A121C | -0.0609 |
| A41G G110A U125G U130G | -2.05 |
| C40U C56G A84C C88A U109A | -7.02 |
| C40U G69C G93A U96G | -2.24 |
| C40U G57U G120C | 0.687 |

| Variant | polymerase ribozyme fitness (log ratio) |
| --- | --- |
| C40U G47C U116G U132C | -4.13 |
| A41G A43U G61U C88G C94G G117A | -7.23 |
| C40U C73U C80U G117U | -4.15 |
| A41C C123A G128U | -2.19 |
| A41U C53G G77A | -1.35 |
| C40U C115U U125G U133C | -0.584 |
| C40U C70U | -0.997 |
| A41G G48U A121U | 1.04 |
| A41C C104A G122A | -3.8 |
| C40U G45U | -2.01 |
| C40U G45A | -1.41 |
| A41G G71U | -0.756 |
| C40U C56A | -0.555 |
| C40U G71C | -1.58 |
| C40U G61U G71A C99U G120A | -6.74 |
| C40U G69C C85U A100G U106C U112C | -4.82 |
| A41U C53G G58A C70U G110C U131A | -6.81 |
| A41G C49G U55A C73U A111C | -2.46 |
| C40U C73A C101U | -0.192 |
| A41G C56A G63U C70U | -2.43 |
| C40U C97A | -5.23 |
| C40U C53U U78C U92A G93A A111C | -4.45 |
| C40U G120A | 0.164 |
| C40U G120U | -0.132 |

| Variant | polymerase ribozyme fitness (log ratio) |
| --- | --- |
| A41C G69U C79G U106A A121U U126G | -0.691 |
| A41G C76U | -0.163 |
| A41C G117U U131A | -4.61 |
| A41G G71U A91U | -2.66 |
| C40U C79A C101U | -2.1 |
| C40U A50G U130C | -0.13 |
| A41C G61U | -0.204 |
| A41C U55G U59C G93C | -2.33 |
| C40U C62G A111G | -2.32 |
| C40U G45C C49U G63U A83U C124G | -6.14 |
| C40U C98A A121C | -4.03 |
| C40U G57A C85A U112A G122C C123A | -1.77 |
| C40G G117U | -3.26 |
| A41G G52C A66C C97U | -3.69 |
| C40U C88A U106C | -1.06 |
| A41G G117C | -4.18 |
| C40U A46G C64U A84C | -1.65 |
| C40U C49A C73U C98G | -6.1 |
| A41G A46C | -1.95 |
| A41G C86A U87C G113U | -4.97 |
| A41C C64G | -6.49 |
| A41U C49G G52U U112C | -1.09 |
| A41G U112A | 1.42 |
| C40U C94U G128U | -4.33 |

| Variant | polymerase ribozyme fitness (log ratio) |
| --- | --- |
| A41C C56U C114A A121G | -1.11 |
| C40U G47A G48C G93A G122A | -1.34 |
| C40U G47C C53U | -3.49 |
| C40U A118G | -1.24 |
| C40U C73G | -0.891 |
| C40U C98G | -6.34 |
| C40U G57U C79A | -1.3 |
| C40G G71A U78G | -2.94 |
| A41G G42U C73G C104A | -5.43 |
| A41C U55G A66C G93C | -4.9 |
| A41G C73U | -0.342 |
| A41U A74U | -1.31 |
| A41U A74C | -4.24 |
| A41U C53U G117C U131A | -5.46 |
| A41C C80U | -1.79 |
| C40U C56U U78C C89G | -2.2 |
| A41C G48U G61C U92A | -5.63 |
| C40U A46G G61U G110A U116A | -3.75 |
| C40U G61C U129A | -3.93 |
| A41C G52C C73G | -2.96 |
| C40U A46U G52A C70U | -3.49 |
| C40U C56A C73U C82G C97U C115U | -4.44 |
| A41G C72A C98U C124U | 0.986 |
| C40U C53G A75G G117A | -2.56 |

| Variant | polymerase ribozyme fitness (log ratio) |
| --- | --- |
| C40U C72A C82G C102A G120A G122U | -3.11 |
| A41U C49U U109A U130G | -6.38 |
| A41G C89G G128C | -3.51 |
| A41G G69C G117U | -4.65 |
| C40U G63C | -0.94 |
| C40G U54A G61C A100U | -4.7 |
| C40U G60U | -0.21 |
| C40U C101A U112C | 0.157 |
| A41U C53U G120U | -1.89 |
| A41U A46U G63U | -3.33 |
| A41C C82U G120A | 0.0706 |
| A41G G42C A46C U54A G60U G110A | -4.92 |
| A41C G48A G60U G135U | -2.21 |
| C40U C72G G117U U130A | -4.89 |
| C40U G57C G58A U116G | -3.95 |
| A41U C72U A83U U87G U92A | -0.865 |
| A41G C49U G110A G122A G127U | -5.4 |
| A41U A46U C89G A121C | -7.24 |
| C40U G47U U109A U129G | -7.79 |
| C40U G42A G122U C123A | -1.77 |
| A41C C82A A111C | -2.14 |
| A41G G63A | -1.32 |
| C40U G52U C88U | -1.18 |
| C40U U112G | 0.138 |

| Variant | polymerase ribozyme fitness (log ratio) |
| --- | --- |
| C40U U112C | 1.25 |
| C40U U112A | 0.76 |
| A41C C56G | -4.05 |
| A41C C56U | -0.143 |
| A41U A43C C49U A50G U129C | -4.69 |
| C40U C72U U116G G120C G128U | -4.53 |
| A41U C53U U112G | -2.23 |
| A41U A84G G122A | -3.29 |
| C40U G44A C62U | -1.32 |
| C40U G69C | -1.61 |
| C40U C101U C124A | 1.16 |
| A41G C64U U81A | -2.25 |
| C40U G110U | -2.35 |
| C40U G48U G52A A121U | -0.327 |
| C40U G44A | -0.755 |
| A41C C124G | 0.528 |
| A41C C99U | -5.06 |
| A41G C62A | -1.85 |
| C40U G63C A74C U131A | -2.75 |
| A41C A83U | -1.29 |
| C40U G61C C72U C88A | -1.95 |
| A41G G69U A74U U81A | -1.11 |
| C40U C56A C82G C97U C115U U132C | -4.39 |
| A41G C49G U59G | -1.99 |

| Variant | polymerase ribozyme fitness (log ratio) |
| --- | --- |
| A41U C72G | -2.06 |
| A41G G47A C76A C101U | -3.57 |
| A41U A111G U112A A118U | -5.06 |
| C40U A43U | -1.09 |
| A41C C86A U106A | -1.11 |
| A41U C56U G110A | -2.95 |
| C40G G128A | -3.61 |
| C40U C70G C98U A119U | -3.66 |
| A41C C98U | -2.48 |
| C40U C49A A50G C62U A105G | -4.71 |
| A41C G44A G58C G93C | -1.87 |
| C40U G52A C53U C124A | 0.594 |
| A41G G52A U59C U125G | -1.61 |
| A41G A46C C88U C104U | -0.948 |
| A41C C73A C86G C104A | -4.53 |
| A41C C104G G107U G110U | -7.15 |
| C40U G63C C115A G135U | -1.95 |
| C40U U55C C70U | -1.45 |
| A41G C101A C115G | -2.97 |
| A41U C72A G113C | -2.13 |
| C40U C73U G93U U130G | -2.36 |
| C40U A74G C79G | -2.36 |
| C40U A41U C72U | -1.91 |
